PMC11077054

What was measured:
nYFP-CmoNAC1 (pumpkin) [1] = biological target: nYFP-CmoNAC1 (pumpkin)
nYFP-CmoNAC1 (pumpkin) [2] = biological target: nYFP-CmoNAC1 (pumpkin); remark: listed apart in the source

**Q.** CmoDREB2A-cYFP (natural protein) was tested. Which LUC/RLU ratio of the reporter with the NACbs of the CmoAKT1;2 promoter in tobacco: CmoDREB2A + CmoNAC1 against CmoNAC1 alone (nYFP-CmoNAC1 (pumpkin) [1]) did it give?
**A.** The LUC/RLU ratio of the reporter with the NACbs of the CmoAKT1;2 promoter in tobacco: CmoDREB2A + CmoNAC1 against CmoNAC1 alone was 99%.

**Q.** What about the LUC/RLU ratio of the reporter with the NACbs of the CmoHKT1;1 promoter in tobacco: CmoDREB2A + CmoNAC1 against CmoNAC1 alone (nYFP-CmoNAC1 (pumpkin) [1]) of the same substance?
**A.** Its LUC/RLU ratio of the reporter with the NACbs of the CmoHKT1;1 promoter in tobacco: CmoDREB2A + CmoNAC1 against CmoNAC1 alone is 107%.

**Q.** What about the LUC/RLU ratio of the reporter with the NACbs of the CmoNCED6 promoter in tobacco: CmoNAC1 + CmoDREB2A against CmoNAC1 alone (nYFP-CmoNAC1 (pumpkin) [2]) of the same substance?
**A.** The LUC/RLU ratio of the reporter with the NACbs of the CmoNCED6 promoter in tobacco: CmoNAC1 + CmoDREB2A against CmoNAC1 alone was 87%.

**Q.** What about the LUC/RLU ratio of the reporter with the NACbs of the CmoRBOHD1 promoter in tobacco: CmoNAC1 + CmoDREB2A against CmoNAC1 alone (nYFP-CmoNAC1 (pumpkin) [2]) of the same substance?
**A.** The LUC/RLU ratio of the reporter with the NACbs of the CmoRBOHD1 promoter in tobacco: CmoNAC1 + CmoDREB2A against CmoNAC1 alone was 67%.
